Results published in patent US20030092616A1, “STAT6 activation gene” (priority 2001, published 2003).

B1: 345 (nucleic acid, listed as Homo sapiens)
chain: CCAGCCAACGAGCGGAAAATGGCAGACAATTTTTCGCTCCATGATGCGTTATCTGGGTCTGGAAACCCAAACCCTCAAGGATGGCCTGGCGCATGGGGGAACCAGCCTGCTGGGGCAGGGGGCTACCCAGGGGCTTCCTATCCTGGGGCCTACCCCGGGCAGGCACCCCCAGGGGCTTATCCTGGACAGGCACCTCCAGGCGCCTACCATGGAGCACCTGGAGCTTATCCCGGAGCACCTGCACCTGGAGTCTACCCAGGGCCACCCAGCGGCCCTGGGGCCTACCCATCTTCTGGACAGCCAAGTGCCCCCGGAGCCTACCCTGCCACTGGCCCCTATGGCGCCCCTGCTGGGCCACTGATTGTGCCTTATAACCTGCCTTTGCCTGGGGGAGTGGTGCCTCGCATGCTGATAACAATTCTGGGCACGGTGAAGCCCAATGCAAACAGAATTGCTTTAGATTTCCAAAGAGGGAATGATGTTGCCTTCCACTTTAACCCACGCTTCAATGAGAACAACAGGAGAGTCATTGTTTGCAATACAAAGCTGGATAATAACTGGGGAAGGGAAGAAAGACAGTCGGTTTTCCCATTTGAAAGTGGGAAACCATTCAAAATACAAGTACTGGTTGAACCTGACCACTTCAAGGTTGCAGTGAATGATGCTCACTTGTTGCAGTACAATCATCGGGTTAAAAAACTCAATGAAATCAGCAAACTGGGAATTTCTGGTGACATAGACCTCACCAGTGCTTCATATACCATGATATAATCTGAAAGGGGCAGATTAAAAAAAAAAAAAAAGAATCTAAACCTTACATGTGTAAAGGTTTCATGTTCACTGTGAGTGAAAATTTTTACATTCATCAATATCCCTCTTGTAAGTCATCTACTTAATAAATATTACAGTGAAAG
modifications: CDS (19)..(768)
B2: 349 (nucleic acid, listed as Homo sapiens)
chain: CCCCCCCGAGCGCCGCTCCGGCTGCACCGCGCTCGCTCCGAGTTTCAGGCTCGTGCTAAGCTAGCGCCGTCGTCGTCTCCCTTCAGTCGCCATCATGATTATCTACCGGGACCTCATCAGCCACGATGAGATGTTCTCCGACATCTACAAGATCCGGGAGATCGCGGACGGGTTGTGCCTGGAGGTGGAGGGGAAGATGGTCAGTAGGACAGAAGGTAACATTGATGACTCGCTCATTGGTGGAAATGCCTCCGCTGAAGGCCCCGAGGGCGAAGGTACCGAAAGCACAGTAATCACTGGTGTCGATATTGTCATGAACCATCACCTGCAGGAAACAAGTTTCACAAAAGAAGCCTACAAGAAGTACATCAAAGATTACATGAAATCAATCAAAGGGAAACTTGAAGAACAGAGACCAGAAAGAGTAAAACCTTTTATGACAGGGGCTGCAGAACAAATCAAGCACATCCTTGCTAATTTCAAAAACTACCAGTTCTTTATTGGTGAAAACATGAATCCAGATGGCATGGTTGCTCTATTGGACTACCGTGAGGATGGTGTGACCCCATATATGATTTTCTTTAAGGATGGTTTAGAAATGGAAAAATGTTAACAAATGTGGCAATTATTTTGGATCTATCACCTGTCATCATAACTGGCTTCTGCTTGTCATCCACACAACACCAGGACTTAAGACAAATGGGACTGATGTCATCTTGAGCTCTTCATTTATTTTGACTGTGATTTATTTGGAGTGGAGGCATTGTTTTTAAGAAAAACATGTCATGTAGGTTGTCTAAAAATAAAATGCATTTAAACTCATTTGAGAG
modifications: CDS (95)..(610)
B3: 6 (nucleic acid, listed as Homo sapiens)
chain: TAAAAGAAGAGAAGAGGCTAAAGAAGAAAAGAAGAAAATCAACTTCTTCTTCAAGTGTTTCTTCTGCTGATGAATCAGTGTCTTCATCATCATCCTCTTCCTCTTCTGGTCACAAAAGGCATAAGAAACATAAGAGGAACCGTTCAGAGTCTTCTCGCAGTTCCAGAAGGCATTCATCTAGGGCATCCTCAAATCAGATAGATCAGAATAGGAAAGATGAGTGCTACCCAGTTCCAGCTAATACTTCAGCATCTTTTCTTAACCATAAACAAGAAGTGGAGAAACTACTGGGGAAGCAGGATAGGTTACAGTATGAAAAGACACAGATAAAAGAGAAAGATAGATGCCCTCTCTCTTCATCTTCACTTGAAATACCGGATGATTTTGGAGGTAGGTCTGAAGATCCAAGAGATTTTTATAACAGCTATAAAACCCAAGCAGGTAGTAGCAAAACAGAAAAGCCATATAAATCAGAAAGACATTTTTCCAGTAGAAGAAATTCCTCAGATTCCTTCTGTAGGAATTCAGAGGACAAGATTTATGGTTATAGGAGATTTGAAAAGGATATAGAGGGAAGAAAAGAGCACTATAGAAGGTGGGAACCAGGTTCTGTGAGGCATTCTACCTCACCAGCAAGCTCAGAATACTCTTGGAAGTCAGTTGAGAAATACAAAAAATACGCTCACTCTGGATCACGTGATTTCAGTAGACATGAGCAAAGATACCGTTTAAATACAAATCAAGGAGAATATGAAAGAGAGGACAATTATGGGGAGGATATCAAAACAGAGGTTCCAGAAGAAGATGCACTAAGTAGCAAAGAACACTCAGAAAGCAGTGTTAAGAAAAATTTACCTCAGAATTTACTGAATATATTTAATCAGATAGCTGAATTTGAAAAAGAAAAAGGAAATAAGTCAAAAAATTAATACACCAAGGATATCGGCACCATTACACAAAATGCCATTAAGTGAAGTTTTTGGTTGTATTAGTCATAACAGTTGAGTGCAGAAATCTCTGCTTCTAAAATTATTTGTAGAGATTACAGGAAACAAATGCTTTTAAGTAAGTTTTTCTCAAATTTTGTTTCAGTTCTAGGTCCCTTGTCACAGCTTGGTTTTTAGACTTTTTATGTATATGTTTATGTACAGTATATTACTCTTGACAGTTTGAATTTCTTCACCTAAAGATAATTCTCTGAAAGTACTGTTTCTTCATTCTATTGCGGTATATGAGAATTCCTGGGTGCATCTTATTCTGCTGTTTGAGAGAAAAATTTGTGCATTGAACACTTGGATCATTTTTATAAAAATTAATTTCATTTTCTTTTCTGTTAAATTAAAAATCGTCAGCTTTTGAAAGAT
modifications: CDS (379)..(567)
B4: 115 (nucleic acid, listed as Homo sapiens)
chain: GTTTTCCGCCGTCCGTCCGGGCGGGCGGGCGCAGAGTCCCGCGGGCGGCGCGGAAGCGGCGGCGGCGCGGCCGGGGCAGCCATGTCGCCATTGTCTGCGGCGCGGGCGGCCCTGCGGGTCTACGCGGTAGGCGCCGCGGTGATCCTGGCGCAGCTGCTGCGGCGCTGCCGCGGGGGCTTCCTGGAGCCAGTTTTCCCCCCACGACCTGACCGTGTCGCTATAGTGACGGGAGGGACAGATGGCATTGGCTATTCTACAGCGAAGCATCTGGCGAGACTTGGCATGCATGTTATCATAGCTGGAAATAATGACAGCAAAGCCAAACAAGTTGTAAGCAAAATAAAAGAAGAAACCTTGAACGACAAAGTGGAATTTTTATACTGTGACTTGGCTTCCATGACTTCCATCCGGCAGTTTGTGCAGAAGTTCAAGATGAAGAAGATTCCTCTCCATGTCCTGATCAACAATGCTGGGGTGATGATGGTCCCTCAGAGGAAAACCAGAGATGGATTCGAAGAACATTTCGGCCTGAACTACCTAGGGCACTTCCTGCTGACCAACCTTCTCTTGGATACGCTGAAAGAGTCTGGGTCCCCTGGCCACAGTGCGAGGGTGGTCACCGTCTCCTCTGCCACCCATTACGTCGCTGAGCTGAACATGGATGACCTTCAGAGCAGTGCCTGCTACTCACCCCACGCAGCCTACGCCCAGAGCAAGCTGGCCCTTGTCCTGTTCACCTACCACCTCCAGCGGCTGCTGGCGGCTGAGGGAAGCCACGTGACCGCCAACGTGGTGGACCCCGGGGTGGTCAACACGGACCTCTACAAGCACGTGTTCTGGGCCACCCGTCTGGCGAAGAAGCTTCTCGGCTGGTTGCTTTTCAAGACCCCCGATGAAGGAGCGTGGACTTCCATCTACGCAGCAGTCACCCCAGAGCTGGAAGGAGTTGGTGGCCGTTACCTATACAACGAGAAAGAGACCAAGTCCCTCCACGTCACCTACAACCAGAAACTGCAGCAGCAGCTGTGGTCTAAGAGTTGTGAGATGACTGGGGTCCTTGATGTGACCCTGTGATATCCTGTCTCAGGATAGCTGCTGCCCCAAGAAACACATTGCACCTGCCAATAGCTTGTGGGTCTGTGAAGACTGCGGTGTTTGAGTTTCTCACACCCACCTGCCCACAGGGCTCTGTCCTCTAGTTTTGAGACAGCTGCCTCAACCTCTGCAGAACTTCAAGAAGCCAAATAAACATTTTGGAGGATAATCACCCCAAGTGGTCTTCAACCATAAACTTTGTGATTCCAAAGTGCCCAGTTGTCACAGGTGCCATAAATAATTACATTTTCCAACAT
modifications: CDS (82)..(1071)
B5: 117 (nucleic acid, listed as Homo sapiens)
chain: GAGCGGCGATGCCGGGGCGGCGGCGCCCGAGTCCGGAGCCCGAGCCCGAAGAGGAGCCGCCCCGGCCCCGCGCCCCCCCGGGAGCTCCGGGCCCTGGGCCTGGTTCGGGAGCCCCCGGCAGCCAAGAGGAGGAGGAGGAGCCGGGACTGGTCGAGGGTGACCCGGGGGACGGCGCCATTGAGGACCCGGAGCTGGAAGCTATCAAAGCTCGAGTCAGGGAGATGGAGGAAGAAGCTGAGAAGCTAAAGGAGCTACAGAACGAGGTAGAGAAGCAGATGAATATGAGTCCACCTCCAGGCAATGCTGGCCCGGTGATCATGTCCATTGAGGAGAAGATGGAGGCTGATGCCCGTTCCATCTATGTTGGCAATGTGGACTATGGTGCAACAGCAGAAGAGCTGGAAGCTCACTTTCATGGCTGTGGTTCAGTCAACCGTGTTACCATACTGTGTGACAAATTTAGTGGCCATCCCAAAGGGTTTGCGTATATAGAGTTCTCAGACAAAGAGTCAGTGAGGACTTCCTTGGCCTTAGATGAGTCCCTATTTAGAGGAAGGCAAATCAAGGTGATCCCAAAACGAACCAACAGACCAGGCATCAGCACAACAGACCGGGGTTTTCCACGAGCCCGCTACCGCGCCCGGACCACCAACTACAACAGCTCCCGCTCTCGATTCTACAGTGGTTTTAACAGCAGGCCCCGGGGTCGCGTCTACAGGGGCCGGGCTAGAGCGACATCATGGTATTCCCCTTACTAAAAAAAGTGTGTATTAGGAGGAGAGAGAGGAAAAAAAGAGGAAAGAAGGAAAAAAAAAAGAATTAAAAAAAAAAAAAAGAAAAAC
modifications: CDS (9)..(755)

test system: STAT6; test: Screening of full-length cDNA clones for promotion of STAT6 activation (luciferase reporter N4×8-luc); assay type: cell-based; conditions: NIH3T3 cells cotransfected with N4×8-luc reporter and cDNA plasmid; 48 h culture, then mouse IL-4 0.5 ng/ml for 6 h
Procedure, shortened: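 NIH3T3 cells cotransfected with STAT6-responsive N4×8-luc reporter (100 ng) and full-length cDNA, cultured 48 h, then given mouse IL-4 at 0.5 ng/ml final for 6 h. Luciferase activity compared with reporter plus null-vector control.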

Molecule	Activity = (luciferase activity of the gene of each SEQ ID NO:)/(luciferase activity of pME18S-FL3)
B1	3.7
B2	24.3
B3	127.5
B4	8.6
B5	10.1
